Assay results as given in patent publication US20230212293A1 (published 2023).

Key:
[1] = biological target: T1, PD-1 on PD-1 reporter Jurkat cells (PATHHUNTER Checkpoint Signaling Assay) (UniProt Q15116 25-288); assay: cell-based or functional assay
[2] = biological target: T2, Recombinant human PD-1 extracellular domain (with an immunoglobulin Fc region or a His tag) (human, UniProt Q15116 25-170); assay: ELISA, plate-coated recombinant PD-1 extracellular domain, HRP anti-human IgG detection
T2 construct: extracellular domain; Coated on ELISA plates; not shown: either an immunoglobulin Fc region or a His tag
T2 sequence (Q15116 25-170): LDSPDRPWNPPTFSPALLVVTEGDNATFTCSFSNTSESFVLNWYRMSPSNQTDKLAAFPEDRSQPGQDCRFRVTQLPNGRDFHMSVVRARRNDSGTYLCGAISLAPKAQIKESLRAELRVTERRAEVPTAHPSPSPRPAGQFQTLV
Method: (§1) An enzyme-linked immunosorbent assay (ELISA) was performed to assess the binding of anti-PD-1 antibodies to human, cynomolgus monkey, or mouse PD-1. Recombinant proteins containing the extracellular domain of PD-1 together with either an immunoglobulin Fc region or a His tag were used to coat wells of standard 96 well ELISA plates by overnight incubation at 4° C. Unbound recombinant protein was removed, Pierce SUPERBLOCK™ T20 was added, and plates were incubated for 10 minutes at room temperature with shaking. Plates were washed with phosphate buffered saline-TWEEN-20 (PBST), and anti-PD-1 antibodies were added in phosphate buffered saline (PBS) with 1% bovine serum albumin (BSA) and incubated for one hour at room temperature with shaking. Plates were then washed in PBST and incubated with horse radish peroxidase (HRP)-conjugated secondary antibodies in F(ab′)2 directed to either human IgG or human IgM. After one hour, plates were washed again with PBST, signal was developed with SUPERSIGNAL™ ELISA Pico substrate, and an ENVISION® luminometer (PerkinElmer) was used to record signal. Data were analyzed with […] PRISM®.

[3] = biological target: T3, Mouse PD-1 overexpressed on HEK293 cells (mouse, UniProt Q02242 25-288); assay: flow cytometry on HEK293 cells overexpressing mouse PD-1
T3 construct: whole, on cells
T3 sequence (looked up): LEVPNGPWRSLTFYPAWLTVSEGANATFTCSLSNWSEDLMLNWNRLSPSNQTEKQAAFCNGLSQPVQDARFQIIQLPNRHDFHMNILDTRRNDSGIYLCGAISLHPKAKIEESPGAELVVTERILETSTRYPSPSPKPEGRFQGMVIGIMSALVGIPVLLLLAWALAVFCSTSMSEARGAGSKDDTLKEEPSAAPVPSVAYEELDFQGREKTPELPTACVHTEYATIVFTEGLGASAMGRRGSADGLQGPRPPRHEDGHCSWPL
Method: (§2) HEK293 cells were modified to overexpress human or mouse PD-1. Cells were expanded in puromycin-containing media to maintain selection, and aliquoted to 96 well V-bottom plates for antibody staining and flow cytometric analysis. Anti-PD-1 antibodies were added to cells in BD stain buffer with fetal bovine serum (BD Biosciences, cat. #554656) and incubated on ice for 20 minutes. Cells were then washed, and R-phycoerythrin (PE)-labeled anti-human IgG or anti-human IgM secondary antibodies were then added and incubated for an additional 20 minutes. Data were collected on a Beckman Coulter CYTOFLEX® cytometer and analyzed in FLOWJO™.

[4] = biological target: T1, PD-1 on PD-1 reporter Jurkat cells …; assay: cell-based or functional assay; remark: listed apart in the source
[5] = biological target: T4, Recombinant mouse PD-1 extracellular domain (with an immunoglobulin Fc region or a His tag) (mouse, UniProt Q02242 25-169); assay: ELISA, plate-coated recombinant PD-1 extracellular domain
T4 construct: extracellular domain; Coated on ELISA plates; not shown: either an immunoglobulin Fc region or a His tag
T4 sequence (looked up): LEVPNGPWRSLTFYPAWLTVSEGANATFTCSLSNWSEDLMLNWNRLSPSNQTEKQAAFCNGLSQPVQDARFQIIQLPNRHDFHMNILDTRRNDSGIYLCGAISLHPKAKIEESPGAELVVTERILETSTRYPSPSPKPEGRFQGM
Method: as §1

[6] = biological target: T1, PD-1 on PD-1 reporter Jurkat cells …; assay: cell-based or functional assay; remark: listed apart in the source
[7] = biological target: T1, PD-1 on PD-1 reporter Jurkat cells …; assay: cell-based or functional assay; remark: listed apart in the source
[8] = biological target: T5, Human PD-1 overexpressed on HEK293 cells (human, UniProt Q15116 25-288); assay: flow cytometry on HEK293 cells overexpressing human PD-1, PE anti-human IgG detection
T5 construct: whole, on cells
T5 sequence (Q15116 25-288): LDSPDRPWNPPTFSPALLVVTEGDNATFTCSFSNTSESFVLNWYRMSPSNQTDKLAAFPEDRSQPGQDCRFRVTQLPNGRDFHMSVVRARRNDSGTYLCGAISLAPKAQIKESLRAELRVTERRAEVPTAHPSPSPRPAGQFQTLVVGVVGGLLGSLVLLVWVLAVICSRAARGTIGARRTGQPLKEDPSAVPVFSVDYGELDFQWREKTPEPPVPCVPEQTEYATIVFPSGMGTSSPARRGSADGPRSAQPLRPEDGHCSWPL
Method: as §2

[9] = biological target: T2, Recombinant human PD-1 extracellular …; assay: ELISA, plate-coated recombinant PD-1 extracellular domain, HRP anti-human IgM detection
Method: as §1

T1 sequence (Q15116 25-288): as above

B1: Anti-PD-1 IgG #1 (antibody, V domains shown)
VH: EVQLQESGPGLVKPSQTLSLTCTVTGYSITSDYAWNWIRQPPGKKLEWMGYINYSGSTSYNPSLKSRVTISRDTSKNQFSLKLSSVTAADTAVYYCARWIGSSAWYFDVWGQGTLVTVS
VL: DVLMTQTPLSLSVTPGQPASISCRSGQNIVHSNGNTYLEWYLQKPGQSPKLLIYKVSNRFFGVPDRISGSGSGTDFTLKISRVEAEDVGVYFCFQGSHVPFTFGQGTKLEIK
notes: IgG format; In the 'IgG/xlink' columns it was crosslinked 1:1 with goat anti-human IgG F(ab')2 fragment; also called Antibody #1 (IgG format)
For B1, the “PD-1 Signaling EC50, IgG/xlink (IgG crosslinked 1:1 with goat anti-human IgG F(ab')2 fragment)” value [1] was 650 pM, the EC50 [2] was 1500 pM and the binding result [3] was “no binding”. The “PD-1 Signaling EC50 (second incubation at 4 C), IgG” value [4] was 29000 pM, the “PD-1 Signaling EC50 (second incubation at 4 C), IgG/xlink (crosslinked IgG)” value [4] was 4400 pM and the binding result [5] was “no binding”. The “PD-1 Signaling EC50 (PATHHUNTER Checkpoint Signaling Assay, reporter Jurkat cells), IgG” value [6] was 65000 pM, the “PD-1 Signaling EC50 (method of Example 8), IgG” value [7] was 85000 pM and the “PD-1 Signaling EC50 (method of Example 8), IgG/xlink (crosslinked IgG)” value [7] was 1800 pM. The EC50 [8] was 59000 pM.

B2: Anti-PD-1 IgG #2 (antibody, V domains shown)
VH: QVQLQESGPGVVKPSGTLSLTCAISGGSIGSGGSIRSTRWWSWVRQSPGKGLEWIGEIYHSGSTNYNPSLKSRVTISLDKSRNHFSLRLNSVTAADTAVYYCARQDYGDSGDWYFDLWGKGTMVTVSS
VL: NFMLTQPHSVSESPGKTVTISCTRSSGSIASNSVQWYQQRPGSSPTTVIYEDNQRPSGVPDRFSGSIDSSSNSASLTVSGLKTEDEADYYCQSSDSSAVVFGSGTKLTVL
notes: IgG format; In the 'IgG/xlink' columns it was crosslinked 1:1 with goat anti-human IgG F(ab')2 fragment; also called Antibody #2 (IgG format); #2 IgG
For B2, the “PD-1 Signaling EC50, IgG/xlink (IgG crosslinked 1:1 with goat anti-human IgG F(ab')2 fragment)” value [1] was 4800 pM, the EC50 [2] was 600 pM and the binding result [3] was “no binding”. The “PD-1 Signaling EC50 (second incubation at 4 C), IgG” value [4] was 5900 pM, the “PD-1 Signaling EC50 (second incubation at 4 C), IgG/xlink (crosslinked IgG)” value [4] was 2100 pM and the binding result [5] was “no binding”. For the same binder, the “PD-1 Signaling EC50 (method of Example 8), IgG” value [7] was 22000 pM, the “PD-1 Signaling EC50 (method of Example 8), IgG/xlink (crosslinked IgG)” value [7] was 3800 pM and the EC50 [8] was 2900 pM.

B3: Anti-PD-1 IgM #2 (antibody)
VH: QVQLQESGPGVVKPSGTLSLTCAISGGSIGSGGSIRSTRWWSWVRQSPGKGLEWIGEIYHSGSTNYNPSLKSRVTISLDKSRNHFSLRLNSVTAADTAVYYCARQDYGDSGDWYFDLWGKGTMVTVSS
VL: NFMLTQPHSVSESPGKTVTISCTRSSGSIASNSVQWYQQRPGSSPTTVIYEDNQRPSGVPDRFSGSIDSSSNSASLTVSGLKTEDEADYYCQSSDSSAVVFGSGTKLTVL
chain: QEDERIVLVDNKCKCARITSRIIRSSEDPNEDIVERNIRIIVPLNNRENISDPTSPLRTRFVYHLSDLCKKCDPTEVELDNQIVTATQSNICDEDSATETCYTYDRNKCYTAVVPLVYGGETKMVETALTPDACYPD
notes: also called Antibody #2 (IgM format); pentameric IgM #2
In the case of B3, the binding result [3] is reported as “no binding”, the “PD-1 Signaling EC50 (second incubation at 4 C), IgM” value [4] is reported as 100 pM and the binding result [5] is reported as “no binding”. For the same binder, the “PD-1 Signaling EC50 (PATHHUNTER Checkpoint Signaling Assay, reporter Jurkat cells), IgM” value [6] was 720 pM, the EC50 [9] was 350 pM and the “PD-1 Signaling EC50 (method of Example 8), IgM” value [7] was 290 pM.

B4: Anti-PD-1 IgG #3 (antibody, V domains shown)
VH: QVQLVQSGAEVKKPGASVKVSCKVSGYSLSKYDMSWVRQAPGKGLEWMGIIYTSGYTDYAQKFQGRVTMTEDTSTDTAYMELSSLRSEDTAVYYCATGNPYYTNGFNSWGQGTLVTVSS
VL: DIQMTQSPSSLSASVGDRVTITCQASQSPNNLLAWYQQKPGKAPKLLIYGASDLPSGVPSRFSGSGSGTDFTLTISSLQPEDFATYYCQNNYYVGPVSYAFGGGTKVEIK
With B4 the “PD-1 Signaling EC50 (second incubation at 4 C), IgG” value [4] was 190 pM, the “PD-1 Signaling EC50 (second incubation at 4 C), IgG/xlink (crosslinked IgG)” value [4] was 190 pM and the “PD-1 Signaling EC50 (method of Example 8), IgG” value [7] was 260 pM. The “PD-1 Signaling EC50 (method of Example 8), IgG/xlink (crosslinked IgG)” value [7] was 790 pM.

B5: Anti-PD-1 IgM #3 (antibody)
VH: QVQLVQSGAEVKKPGASVKVSCKVSGYSLSKYDMSWVRQAPGKGLEWMGIIYTSGYTDYAQKFQGRVTMTEDTSTDTAYMELSSLRSEDTAVYYCATGNPYYTNGFNSWGQGTLVTVSS
VL: DIQMTQSPSSLSASVGDRVTITCQASQSPNNLLAWYQQKPGKAPKLLIYGASDLPSGVPSRFSGSGSGTDFTLTISSLQPEDFATYYCQNNYYVGPVSYAFGGGTKVEIK
chain: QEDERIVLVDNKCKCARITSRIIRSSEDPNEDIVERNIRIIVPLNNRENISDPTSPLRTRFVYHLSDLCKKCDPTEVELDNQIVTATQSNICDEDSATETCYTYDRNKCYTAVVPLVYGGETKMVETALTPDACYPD
With B5 the “PD-1 Signaling EC50 (second incubation at 4 C), IgM” value [4] was 65 pM and the “PD-1 Signaling EC50 (method of Example 8), IgM” value [7] was 130 pM.

B6: Anti-PD-1 IgG #4 (antibody, V domains shown)
VH: QVQLVQSGSELKKPGASVKVSCKASGYTFTDYSMHWVRQAPGQGLEWMGWINIETGEPTYAQGFTGRFVFSLDTSVSTAYLQISSLKAEDTAVYFCARDYYGTYFYAMDYWGQGTLVTVSS
VL: EIVLTQSPATLSLSPGERATLSCTASSSVSSSYLHWYQQKPGLAPRLLIYSTSNLASGIPDRFSGSGSGTDYTLTISRLEPEDFAVYYCHQYHRSPLTFGQGTKLEIK
In the case of B6, the “PD-1 Signaling EC50 (second incubation at 4 C), IgG” value [4] is reported as 890 pM and the “PD-1 Signaling EC50 (second incubation at 4 C), IgG/xlink (crosslinked IgG)” value [4] is reported as 1700 pM.

B7: Anti-PD-1 IgM #4 (antibody)
VH: QVQLVQSGSELKKPGASVKVSCKASGYTFTDYSMHWVRQAPGQGLEWMGWINIETGEPTYAQGFTGRFVFSLDTSVSTAYLQISSLKAEDTAVYFCARDYYGTYFYAMDYWGQGTLVTVSS
VL: EIVLTQSPATLSLSPGERATLSCTASSSVSSSYLHWYQQKPGLAPRLLIYSTSNLASGIPDRFSGSGSGTDYTLTISRLEPEDFAVYYCHQYHRSPLTFGQGTKLEIK
chain: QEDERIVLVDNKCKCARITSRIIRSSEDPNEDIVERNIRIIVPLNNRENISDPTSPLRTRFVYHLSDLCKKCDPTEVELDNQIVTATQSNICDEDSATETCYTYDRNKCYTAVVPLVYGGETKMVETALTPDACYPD
B7 was tested, and the “PD-1 Signaling EC50 (second incubation at 4 C), IgM” value [4] was 1100 pM.

B8: Anti-PD-1 Hexameric IgM (IgHM) #1 (antibody, V domains shown)
VH: EVQLQESGPGLVKPSQTLSLTCTVTGYSITSDYAWNWIRQPPGKKLEWMGYINYSGSTSYNPSLKSRVTISRDTSKNQFSLKLSSVTAADTAVYYCARWIGSSAWYFDVWGQGTLVTVS
VL: DVLMTQTPLSLSVTPGQPASISCRSGQNIVHSNGNTYLEWYLQKPGQSPKLLIYKVSNRFFGVPDRISGSGSGTDFTLKISRVEAEDVGVYFCFQGSHVPFTFGQGTKLEIK
In the case of B8, the “PD-1 Signaling EC50 (method of Example 8), IgHM” value (from here on “PD-1 Signaling EC50 … IgHM”) [7] is reported as 70 pM.

B9: Anti-PD-1 Hexameric IgM (IgHM) #2 (antibody, V domains shown)
VH: QVQLQESGPGVVKPSGTLSLTCAISGGSIGSGGSIRSTRWWSWVRQSPGKGLEWIGEIYHSGSTNYNPSLKSRVTISLDKSRNHFSLRLNSVTAADTAVYYCARQDYGDSGDWYFDLWGKGTMVTVSS
VL: NFMLTQPHSVSESPGKTVTISCTRSSGSIASNSVQWYQQRPGSSPTTVIYEDNQRPSGVPDRFSGSIDSSSNSASLTVSGLKTEDEADYYCQSSDSSAVVFGSGTKLTVL
With B9 the “PD-1 Signaling EC50 … IgHM” value [7] was 400 pM.

B10: Anti-PD-1 Hexameric IgM (IgHM) #3 (antibody, V domains shown)
VH: QVQLVQSGAEVKKPGASVKVSCKVSGYSLSKYDMSWVRQAPGKGLEWMGIIYTSGYTDYAQKFQGRVTMTEDTSTDTAYMELSSLRSEDTAVYYCATGNPYYTNGFNSWGQGTLVTVSS
VL: DIQMTQSPSSLSASVGDRVTITCQASQSPNNLLAWYQQKPGKAPKLLIYGASDLPSGVPSRFSGSGSGTDFTLTISSLQPEDFATYYCQNNYYVGPVSYAFGGGTKVEIK
For B10, the “PD-1 Signaling EC50 … IgHM” value [7] was 200 pM.

B11: Anti-PD-1 pentameric IgM #5 (antibody)
VH: QVQLVESGGGVVQPGRSLRLDCKASGITFSNSGMHWVRQAPGKGLEWVAVIWYDGSKRYYADSVKGRFTISRDNSKNTLFLQMNSLRAEDTAVYYCATNDDYWGQGTLVTVSS
VL: EIVLTQSPATLSLSPGERATLSCRASQSVSSYLAWYQQKPGQAPRLLIYDASNRATGIPARFSGSGSGTDFTLTISSLEPEDFAVYYCQQSSNWPRTFGQGTKVEIK
chain: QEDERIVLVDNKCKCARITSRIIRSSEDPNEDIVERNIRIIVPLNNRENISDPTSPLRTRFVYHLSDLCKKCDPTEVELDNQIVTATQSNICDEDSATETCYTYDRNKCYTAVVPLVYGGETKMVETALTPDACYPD
B11 was tested, and the “PD-1 Signaling EC50 (method of Example 8), IgM” value [7] was 30 pM.
